Here are results for one substance from PMC9392717.

This data set relates to His/Xpress-Gemin5 (pcDNA3Xpress-Gemin5). In words: pull-down (UV-irradiated HEK293 cells, Ni-NTA, RT-qPCR). Particulars: EMSA: RNA folded in 100 mM HEPES pH 8.0, 100 mM NaCl, 5.25 mM MgCl2, 37 C; binding in 40 mM Tris-HCl pH 7.5, 250 mM NaCl, 0.1% (w/v) bME, 15 min, room …. On the technique in general: Mobility shift assays separate free from complexed probe on a gel.

L32-WT-luc mRNA (5'TOP) yielded a binding signal (fold vs L32-CM6) of 5.
